Test results as given in patent publication US12077763B2, “RNA-based control of powdery mildew” (Greenlight Biosciences, Inc., priority 2021, dated 2024).

B1: GS3312 (nucleic acid)
sense: CUGCUGGUAGUGACAAGGGCACAGAACACGUCUGGGAAAUAAGCCAGAGCGUGGGCAUGAUAAUUGGUGGAAUUUUAGAAAAUUUGCUCAUGCUUAUGGGAAAAGUUCCCAGCUUAACGAGGAGGCAAGUACGAUAUAGCUGUAUGACAAGAUACUAUGACUGUAGUAAAGCUAAGAGGCUACUUGGAUAUACACCAGAAGUCCACCUGUGGGAAGGCAUAGAGAGGUCAGUUGCUUGGUUCAAAAAUCAGAGUUAAUUAUCGAAGCCCGAAUGAAUACUUCAUAUUACUAAACUUGCCCGAAUUAAAAUUCUGGCUAGCUUAGUUAUCAAAUAAAAAUUGAUAGUUAAGUUGAUCUUUCAUUGAUGAAUAUAUAAGUACUUAACCUUAUCAUUCAAU
antisense: AUUGAAUGAUAAGGUUAAGUACUUAUAUAUUCAUCAAUGAAAGAUCAACUUAACUAUCAAUUUUUAUUUGAUAACUAAGCUAGCCAGAAUUUUAAUUCGGGCAAGUUUAGUAAUAUGAAGUAUUCAUUCGGGCUUCGAUAAUUAACUCUGAUUUUUGAACCAAGCAACUGACCUCUCUAUGCCUUCCCACAGGUGGACUUCUGGUGUAUAUCCAAGUAGCCUCUUAGCUUUACUACAGUCAUAGUAUCUUGUCAUACAGCUAUAUCGUACUUGCCUCCUCGUUAAGCUGGGAACUUUUCCCAUAAGCAUGAGCAAAUUUUCUAAAAUUCCACCAAUUAUCAUGCCCACGCUCUGGCUUAUUUCCCAGACGUGUUCUGUGCCCUUGUCACUACCAGCAG
B2: GS3314 (nucleic acid)
sense: CGAGGUUCAUGGUAGUUCCCUAUCUAAGGAUGAUCUUCGAGAUUUGAGAAAUAUUGACCUCUCAGACUUUUCCUACCGACAGCCCUAUAUGCAAGAAAGAAGAGACGCCGUUGGCCAAAGAGGAAACAUAAGUAAUAGAGGAAGAGGAAGGGUGAGAGGUAUAGGAAGGGAUCCAAACGUGGACCUUCCCCAACCCUUAAGUAGUCAACCUUUAAGGAGGGACGAACAAGCAUUUCAAAGGCAACUAGCAGUCCAAUCCUCUCAGUCUGUCACGACAAGGAACUCCGUCCAUCAAAAUACAACACCAGCAUCGCAAAUAUCAAAUAAUACUCCAAAAUCACAGUCUCAAGUAACAAGAUCCCCCCAGACUUCUAAUAACCUUGAAAGUGCAAACAUU
antisense: AAUGUUUGCACUUUCAAGGUUAUUAGAAGUCUGGGGGGAUCUUGUUACUUGAGACUGUGAUUUUGGAGUAUUAUUUGAUAUUUGCGAUGCUGGUGUUGUAUUUUGAUGGACGGAGUUCCUUGUCGUGACAGACUGAGAGGAUUGGACUGCUAGUUGCCUUUGAAAUGCUUGUUCGUCCCUCCUUAAAGGUUGACUACUUAAGGGUUGGGGAAGGUCCACGUUUGGAUCCCUUCCUAUACCUCUCACCCUUCCUCUUCCUCUAUUACUUAUGUUUCCUCUUUGGCCAACGGCGUCUCUUCUUUCUUGCAUAUAGGGCUGUCGGUAGGAAAAGUCUGAGAGGUCAAUAUUUCUCAAAUCUCGAAGAUCAUCCUUAGAUAGGGAACUACCAUGAACCUCG
B3: ES52: dsRNA trigger SEQ ID NO 113; gene target Hypotethical effector (nucleic acid)
DNA: ATGTTCAAAAAATTTATTTTCCTCTCAAGCCAGGCCTTAATGGTACTTTCGAATCCTCTTTATATTGGTGATAATCATCTTCCGAGCGACCAAAATAATCCGTTCTTAATATCCTATGATTGGAAAGCTGGCTTTACAAGCGAATTCGAACTTCATGATTCCTGCAATGCAACACAGAAAAAACAGCTGCAAGACGGCCTCTCTGACGCTGTGACACTTGCTAGGCATGCTAAAGAACATATTCTTGTGAAGGGAACTGAATCACCCATATATAAGAAATATTTCGGTCAAGGTCCTACAGGATCGGTCCTGGGATGGTATGACAAAATTGCTTCTTCTGACCGAAAAGACATCCTTTTCCGTTGTGATGACCCCGATAAGAATTGCCAAACTCAACCTCAATGGGCTGGACATCACCGCGGAAAAAATGCGTCATTAGAGACAGTGATCTGCGAGCTTTCATTTCTCACTCGGCTTCCACTTGAAGCTC
B4: GS3317 (nucleic acid)
sense: CAGGACUGUCCAGUUAGAUCUAGAGUCAAAAUGCCCAAAUCAUCCAAAAAGUAAGGUGGUAUAAGAAGAAGCUUAACGUUUAUAGACGUAACUGAAUCUCGGAAGAACAGCUCUUUCCUAGCAAGCAAGUAGUUGUGAAAUUACCUGCUCCUAGGUUUAUUUUUUAUUUUCAGGUGGAAUAUUGAUGAUCGCUGGAUCCACAAAAUGUAAAUUAAAAAAAUAAAAACAAAUAUCUGGUGACUGAAGGAUUUCAUGUAGUGACUAAACGUCAGUACAAGUCACAGAGUACUGAUCAAAACUACAGAAUUAUAUCUCGACGUCUUCCCUGAAGAUGAUAAAAGAUUCACCCACAACAUAAAGCUUUCAUUAUAUAU
antisense: AUAUAUAAUGAAAGCUUUAUGUUGUGGGUGAAUCUUUUAUCAUCUUCAGGGAAGACGUCGAGAUAUAAUUCUGUAGUUUUGAUCAGUACUCUGUGACUUGUACUGACGUUUAGUCACUACAUGAAAUCCUUCAGUCACCAGAUAUUUGUUUUUAUUUUUUUAAUUUACAUUUUGUGGAUCCAGCGAUCAUCAAUAUUCCACCUGAAAAUAAAAAAUAAACCUAGGAGCAGGUAAUUUCACAACUACUUGCUUGCUAGGAAAGAGCUGUUCUUCCGAGAUUCAGUUACGUCUAUAAACGUUAAGCUUCUUCUUAUACCACCUUACUUUUUGGAUGAUUUGGGCAUUUUGACUCUAGAUCUAACUGGACAGUCCUG
B5: GS3311 (nucleic acid)
sense: CUUCUCGGUAAUUCCGCAACAUUUUUAACCAUGACAUUCCAUUUCGUACAUGCUCUUGAUAUUCCGAUAACGUCAGCCUCUUGAAAUGCAUCACUUCCUAUGGCAGUAGUGGGCACUUGGCCGCAAAAAACUACUAGUGGUGUACCGUCAGAUAGAGCGUCCUGCAUCGGUGUUAUGACAUUUGUUGCACCAGGGCCAGAAGUAACUAGAAUCACCCCAGGAAGUCCACUAGCUCUGGCAUAGCCUUCAGCCAUAUGUCCAGCACCCUGUUCAUGUUUCGGUAGAAUAAAAUCGAAGUGCCUUGAAUUAUAAAUAGCGUCGAAAACGGGAAGAAUUGCUCCACCAGGAUAACCGAAAAUAUGUUUUACACCUUGCCGUAACAUCAUUUCGUGAAAUAU
antisense: AUAUUUCACGAAAUGAUGUUACGGCAAGGUGUAAAACAUAUUUUCGGUUAUCCUGGUGGAGCAAUUCUUCCCGUUUUCGACGCUAUUUAUAAUUCAAGGCACUUCGAUUUUAUUCUACCGAAACAUGAACAGGGUGCUGGACAUAUGGCUGAAGGCUAUGCCAGAGCUAGUGGACUUCCUGGGGUGAUUCUAGUUACUUCUGGCCCUGGUGCAACAAAUGUCAUAACACCGAUGCAGGACGCUCUAUCUGACGGUACACCACUAGUAGUUUUUUGCGGCCAAGUGCCCACUACUGCCAUAGGAAGUGAUGCAUUUCAAGAGGCUGACGUUAUCGGAAUAUCAAGAGCAUGUACGAAAUGGAAUGUCAUGGUUAAAAAUGUUGCGGAAUUACCGAGAAG
B6: GS3313 (nucleic acid)
sense: AUCGUGAAUGGAGCUGUAACUGAAACAACAGCUUUACUAAACGAAAAAUGGGACAAAAUAUUUUACACUGGCAAUACCCAAGUAGGUGUAAUAAUUGCCAAAAAAGCUGCAGAAACUCUUACACCAGUUUGCUUAGAGCUCGGGGGAAUCAAUCCGGCAAUCAUUACGAAAAAUGCAGACCCAUACCUUGCUGCUCGUCGGCUAUUAUGGGGUAAACUAAUGAAUGCUGGACAAGUUUGCAUCAGUCAAAAUUAUAUUCUUGUCGAACAAGAAGUUUUACCAAUUUUCGUAGAGCAUUUGAAAAACACUCUAAAUGAAUUCUAUCCAAAUGGUAUAAGAAAUAGUCCAGAUUUUGGAAGGAUAGUCAAUCAGCGUCAUUUUUCUAGAAUUAAAAAAAU
antisense: AUUUUUUUAAUUCUAGAAAAAUGACGCUGAUUGACUAUCCUUCCAAAAUCUGGACUAUUUCUUAUACCAUUUGGAUAGAAUUCAUUUAGAGUGUUUUUCAAAUGCUCUACGAAAAUUGGUAAAACUUCUUGUUCGACAAGAAUAUAAUUUUGACUGAUGCAAACUUGUCCAGCAUUCAUUAGUUUACCCCAUAAUAGCCGACGAGCAGCAAGGUAUGGGUCUGCAUUUUUCGUAAUGAUUGCCGGAUUGAUUCCCCCGAGCUCUAAGCAAACUGGUGUAAGAGUUUCUGCAGCUUUUUUGGCAAUUAUUACACCUACUUGGGUAUUGCCAGUGUAAAAUAUUUUGUCCCAUUUUUCGUUUAGUAAAGCUGUUGUUUCAGUUACAGCUCCAUUCACGAU
B7: GS3310 (nucleic acid)
sense: CGUCGACCUCAAAAGCAGAGAAGUUGGGCGAGUUGAUUAUUGCUUCUACGGAGAAAGCCUGUAUAACUGUAGGUUCGUAGCUUUGAGCAUUCAAAAAUUUGUUGUAAACGAUUUUAGUAGAUGAGUAUUCACUUGGCAAAUGAGAGAUUUGAUCUGCUAUUGUUUGAGCGUCUGCAAAGGUUGGAAUAUCUUUCCCUACGCCAGAGAAACUUAAAACAAUAUUUUUACUACUUGACCGACUCAAUUGUGCCUUAGCCUUCUCUCCCAAUACCACAAUAUCGGCAUUGGGGUUUUCAGAGAGCAUUUUUCGAACGUGUUUACUUAAGCCUGAAUGAAUACCGCCGCACAAUCCUUUAUCUGAGCUUGCAACUACAAUCAAGUACUUUUGGUCAUCUUUU
antisense: AAAAGAUGACCAAAAGUACUUGAUUGUAGUUGCAAGCUCAGAUAAAGGAUUGUGCGGCGGUAUUCAUUCAGGCUUAAGUAAACACGUUCGAAAAAUGCUCUCUGAAAACCCCAAUGCCGAUAUUGUGGUAUUGGGAGAGAAGGCUAAGGCACAAUUGAGUCGGUCAAGUAGUAAAAAUAUUGUUUUAAGUUUCUCUGGCGUAGGGAAAGAUAUUCCAACCUUUGCAGACGCUCAAACAAUAGCAGAUCAAAUCUCUCAUUUGCCAAGUGAAUACUCAUCUACUAAAAUCGUUUACAACAAAUUUUUGAAUGCUCAAAGCUACGAACCUACAGUUAUACAGGCUUUCUCCGUAGAAGCAAUAAUCAACUCGCCCAACUUCUCUGCUUUUGAGGUCGACG

system: E. necator; assay: Leaf disc assay, dry inoculum (settling tower), decrease in disease severity / hyphal growth (Example 2); settings: decrease in disease severity (hyphal growth) relative to untreated control; time point 1 (untreated control hyphal growth ≥50%); value ± SE

Molecule	% decrease =/− SE TP1
B1	13 ± 4%
B2	17 ± 8%
B3	6 ± 1%
B4	21 ± 9%
B5	29 ± 7%
B6	9 ± 9%
B7	22 ± 8%

same assay, conditions: decrease in disease severity (hyphal growth) relative to untreated control; time point 2; value ± SE

Molecule	% decrease =/− SE TP2
B1	19 ± 6%
B2	12 ± 8%
B3	6 ± 2%
B4	17 ± 9%
B5	24 ± 7%
B6	13 ± 9%
B7	11 ± 8%
